Measured values as given in the DeepSol protein solubility set.

Experiment: soluble on expression in E. coli; label from the status in PepcDB or PDB records

Sequence	soluble on expression in E. coli
MGHHHHHHSHMAVRRPGCFLCREEAADLSSLKSMLDQLGVPLYAVVKEHIRTEVKDFQPYFKGEIFLDEKKKFYGPQRRKMMFMGFIRLGVWYNFFRAWNGGFSGNLEGEGFILGGVFVVGSGKQGILLEHREKEFGDKVNLLSVLEAAKMIKPQTLASEKK	not soluble
MGSDKIHHHHHHMSIYRKIDRNKIQFDFIVHKTGKNFFEDEILKLGGRIYRLPNKRKHPFKYKQEFLNVIKNYKIIHVHSVYAFTYYEVKWARQCQKSVILHSHNSDAKLLRKIIHYLFKHLQNHYVSVRLSPSKQAAKWMFNEGHDKVVYLYNGFDTTKFQFDMNSRIEIREQLGLANNDYIIGCVGRLDWQKDPIYLLRLFEKLKANDNAYKLIFIGDGSYRQTLERETHQKGLVNDVIFTGSVSNVPEYLSALDIFVLPTRYEGLGISLIEAQINGLPVFTNKDVPKEAVINQNMYLLDKGDSELWVDAINKELNVINLKKRKVNLSDFNQYNIETVVKKLQNIYLQLLS	not soluble
MAHHHHHHSLQTGIPALPPIAQPLPVPAPAPVTPPAPTVPVPQEPAPVPQPPMPQPSVPQTPAPQKPVTPRPAPAPSRAPLLIQARANVPALVAGKKTTVPVLKTLTIPAERAAQLRQRGEVSASLQADLDTFLKSLAAPRDARFEQQDDGQWAVVQPNGLKVDAQATRAAVAKVLRDPRGVSANVVVTGQVAPQRTLDFFASRGITTFLATGFTSYYGSSPERVKNIHVGAQNFKDRLFEGDVFSFNKFIGPVSERNGYVPGLVIAGDQTASGVGGGICQVSTTVFRTLYGAGLGIVQRQNHSYQVFYYDPQGLDATIYQPQLDLKFANTTGGPIWFQTEWDDQEATLTITAFGQARDYQVQVDAPKTLKTVAPPKDRLIPDASLPAGQRKQVDWAAPGATIEVTRRFTRGGKTFKQDTLRSVYRPWPNIFRVGTKKEG	not soluble
MGHHHHHHSHMEKCSVGGLELTEQTPALLGNMAMATSLMDIGDSFGHPACPLVSRSRNSPVEDDDDDDDVVFIESIQPPSISAPAIADQRNFIFASSKNEKPQGNYSVIPPSSRDLASQKGNISETIVIDDEEDVETNGGAEKKSSFFIEWGLPGTKNKTNDLDFSTSSLSRSKTKTGVRPFNPGRMNVAGDLFQNGEFATHHSPEMHLQRRLMSFFQ	not soluble
MGLTVEAADEKGLTLRLPYSQAIIGNPESGVVHGGAITTLMDTTCGISTVCVLPDFEICPTLDLRIDYMHPAEPHKDVYGFAECYRVTPNVIFTRGFAYQDDPGQPIAHVVGAFMRMGLEHHHHHH	not soluble
RPPLQEYVRKLLYKDLSKVTTEKVLRQMRKLPWQDQEVKDYVICCMINIWNVKYNSIHCVANLLAGLVLYQEDVGIHVVDGVLEDIRLGMEVNQPKFNQRRISSAKFLGELYNYRMVESAVIFRTLYSFTSFGVNPDGSPSSLDPPEHLFRIRLVCTILDTCGQYFDRGSSKRKLDCFLVYFQRYVWWKKSLEVWTKDHPFPIDIDYMISDTLELLRPKIKLCNSLEESIRQVQDLEREFLIKLGLVN	soluble
MNSNEDIHEERIEVPRTPHQTQPEKDSDRIALRDEISVPEGDEKAYSDEKVEMATTNASSNFGSNESAKDGESIGAFSNPHEALMQSKLREESQSKTILPSDDLSQQLETEESKVEEALKRITSPPLPPRADCIEESASALKSSLPPVLAGNKNDQAPLDRPQLPPRQVVNAETLHLKAPHGNATPSKSPTSAVGNSSSSTPPTLPPRRIEDPLDLAAQKHFLASTFKRNMLFYKSEDNSIKCDLDKNILNLKEDSKKINNNEIPEEVSSFWLKVIGDYQNILINDIETLHFQLSRGIPAAYRLVVWQLVSYAKSKSFDPIYETYLTEMAPFDVQEFENQLKMMDEVPSEYVKRISNVLKAYLLFDPECEFSTDIAYIINMILDVCEEEANAFGLLVRLMKVYGLRLLFLPSASEIDILCYKFDRLVEEFYPEIHNHMVEKGVRSSMFLPGFFTTLFQKKLPTEIQPRIGDMVFLEGIDSIMRILATLLSNSRDHLLKMGFDDMLELLKSGLLDAYIKQNDGTRGDTLLSNECMDKLLQDSMMKVAITPKTMKKYSSEYEEIHRLDNEKEVQYKSITEKNLHLQKHVRKLENDYTSLNREHVTIANELVKNRLNIESVLNENNGYKLQILDLKKKLDSEKKKQVLGVYVPNDLKKDLEETMKKNTQVMDENLKLQDRISELERLIEEIKTANKNGTLFEYSNSKNNPLGAGWSGFKKVFK	soluble
MRAVVLKGFGGLEMLEERDLPVPEPGPGEVLVRNLAVAVNPVDAKIRAAGRWAGVEPPFVLGYDAAGVVAKVGPGVKDLKEGDEVYYTPEIFGNPHGTYAEYTPVPAGIVAKKPKNLSFAEAAAIPLAGGTAWKAVVRRLAVRPGETVLVMGGAGGVGSFAVQFAKAAGAYVIATASAENLPVLKELGADLALDYRGPWAEEVLKATEGQGVDAAFETAGESLVERVIPVVRPFGRIATILPPQGNLSGLYTKNQTLYGVFLTRERKRLLEMRPLFERGLARPLIAEVLPFSLENLRKAHARMDSGHGRGKIVLTFQA	soluble
MGSDKIHHHHHHMKIFLDTANLEEIKKGVEWGIVDGVTTNPTLISKEGAEFKQRVKEICDLVKGPVSAEVVSLDYEGMVREARELAQISEYVVIKIPMTPDGIKAVKTLSAEGIKTNVTLVFSPAQAILAAKAGATYVSPFVGRMDDLSNDGMRMLGEIVEIYNNYGFETEIIAASIRHPMHVVEAALMGVDIVTMPFAVLEKLFKHPMTDLGIERFMEDWKKYLENLKK	soluble
RMNLKEAAKKAENKSDFVNHVLPHYCNIMFGLIETRSAFLHEKSNFFEGFLTKEGLINEDRFAPMFGIYGMAEAVDILMEKEGIEAKYGHDEIANQLGHAISKQLSEIVDATDVKYGYHGKALLHAQGGISLDIDVTPGVRIPYGTEPDPVSYVQATVGHHQYYTSGISDILTIDETVKSNPEAMFNLAKGALQLGYREFTANVASNDLVRITGYMVKLSDIAKYDAEGSRTNTTFL	not soluble
MGSDKIHHHHHHDYKLVIFASFNGKAYSDNPRYLFEYLRDHEEFASYHFVWAFKVKRSVNRAKVVKFNSFSYYYLLSKAKYWVFNSKMAPYYHKKGEQVYLQTWHGTPLKRLGHDILDNGITYYRSRLSYQQMLRSYDEDSRHWDYLISPNPFSSQAFTSAFNLDRGKLLEVGYPRVDFLVNADSNKCMELKRRYGLPLDKKVVLYAPTWRDDSFGIRGYRFELAVDFYKWKNQLGDDTVILFKPHYLISNVYQIPNDLSNFVYLMAASADINDAYLMSDVLITDYSSVFFDYANLNRPIYFYMYDFEQYEQELRGFYLNVPDELPNDVIRTEKELLRRIKEDIFDYDRLQVFNQVFNSWNDGKVSSKVAKRIFYEN	not soluble
MSELWYTEKQTKNFGITMKVNKTLHTEQTEFQHLEMVETEEFGNMLFLDGMVMTSEKDEFVYHEMVAHVPLFTHPNPEHVLVVGGGDGGVIREILKHPSVKKATLVDIDGKVIEYSKKFLPSIAGKLDDPRVDVQVDDGFMHIAKSENQYDVIMVDSTEPVGPAVNLFTKGFYAGIAKALKEDGIFVAQTDNPWFTPELITNVQRDVKEIFPITKLYTANIPTYPSGLWTFTIGSKKYDPLAVEDSRFFDIETKYYTKDIHKAAFVLPKFVSDLIKLEHHHHHH	soluble
MGSDKIHHHHHHMLKPSDKWSWYFSDSEGYLMLNLGDDMLFRTNLSRNLLVDCAFIENPFTVDDASDFQLYKEHIACLPLSEPRKAELALYCVAAKRFHKPVQPKSWFFDVQGTGYTPQQGQLISLRNSLNSGIFIALEVGENATLCAYSDLVSFALNGSKTLEFGQVIKVMHDRMSDVNTLLYTPQMAMVS	not soluble
MFPFSPADVPTLSYFDEYRGRRVQCHFCFQEVDGSTLLNHFKDDLRVFRYPSNSCYGIAATGDALRAHLRRLHFYSRPPAVRGFDIEQRRIRSQLKFDEHEHDPDWDMEDVQQENRSKEAPVEAVNSQDATSPAEKVSKIKEDISTSSSRVDPMYSDEDSEDETSDADSSDDENRESEEEEDEY	not soluble
MPEVRAERYIPAPPERVYRLAKDLEGLKPYLKEVESLEVVAREGARTRSRWVAVAMGKKVRWLEEEEWDDENLRNRFFSPEGDFDRYEGTWVFLPEGEGTRVVLTLTYELTIPIFGGLLRKLVQKLMQENVESLLKGLEERVLAASS	soluble
MSLDDLLKEVLKDKRLLEVLRHLKRANVDYGKSIMLNTKIPLTEVLDVLDKLESLGLIERVTGATLKNTEAKFKLSQEVHKHHTYYRLTRDGDHLLRRLDEKDIIDAYAEIVKDDEVGLKLLYYAEELHSDHALTYSKLLRKPLEEITPKIEELERMGLMEEKNSKVIKFRERRAKPEGHHHHHH	not soluble
MILAILQARMSSTRLPGKVLMPLQRQPMIVRQIERVARSKRIDKLVVATSDRPEDDAIEAAVRREGIAVFRGSLDNVQQRFIGALDAHPADHVVRLTADCPLADPTLIDATIDLCLSKGADYVSNTPEGHAHPKGTDVEVMTAAALRRAAAEATTKEAFEHVTWDLWNQPQRWTCAWLPCFPDQGAVRWTVDRPDDYAFVAAVYDALYPANRAFTSDDIRAFVAGRPDLQDYGGDRRALEHHHHHH	not soluble
MAEKVAVIVGPTAVGKTKLGIALAKKLGGEVISGDSMQIYKGMDIGTAKVKPDEMEGIPHHLLDIKEPCEPFSVVEFQRLCRALITEISARGRLPIIVGGTGLYIQAALYDYQFSAAPSDEAYRRALKQLAAEQGAEALHRRLEAVDPISAARIHPHNIRRVIRALEVYHCTGKPFSEWQQTEKRLLYEAAIVGLTAEREALYRRINERVDEMIAAGLIEEARALYDRGLRDCQAVQAIGYKELYDYFDGRVSLDEAIEQLKQNSRRYAKRQLTWFRNQMPVKWFDMTDAGQFAAKVQEISRYVAGKLQLEANI	not soluble
MAQTAFHVEFNKAPEDQATKTHNRWHPDIPMVEWFNPGDEFRVECYDWTGGQISNDDSANDVRDVDLTRVHYLSGPFGVKGAEPGDLLVVDLLDVGALPESAWGFTGIFARENGGGFLCEHFPDARKACWDFHGIYTTSRHVPNVRWPGIIHPGLIGCLPDRALLERANKREAALLATDPNRVPPLLAPSYADTALMGQMSGEAARKAGAEAWRTVPPREHGGNCDIKNLSRGSRVYFPVYVKGGGLSMGDIHWSQGDGEITFCGAIEMAGFLDIRVDLIKDGINKYGIVNPIFKPSPIEPHFAEYLVFEGISVDEHTGEQYYLDAHVAYRRACLNAIEYLKKFGYTSEQAYIILGTAPVEGRISGIVDIPNACCTLAIPTEIFDFDIRPNAAGPSAKVGKAKVAVTSLEHHHHHH	not soluble
MQNDAGQTVELYVPRKCSSSNRIIGPKDHASVQIDFVDVDPETGRMIPGKSTRYAICGAIRRMGESDDAILRLAQKDGLVPRDDVKSN	not soluble
MSQSISLKGSTRTVTEFFEYSINSILYQRGVYPAEDFVTVKKYDLTLLKTHDDELKDYIRKILLQVHRWLLGGKCNQLVLCIVDKDEGEVVERWSFNVQHISGNSNGQDDVVDLNTTQSQIRALIRQITSSVTFLPELTKEGGYTFTVLAYTDADAKVPLEWADSNSKEIPDGEVVQFKTFSTNDHKVGAQVSYKY	soluble
MAHHHHHHMGTLEAQTQGPGSMLNKRKFYINGLWDDPSTPHDLYVIDPSTEEACAVISLGSTRDADKAINAAKKAFQTWKTTSPHERLGFVEKILEIYEKRSSDMAKTISMEMGAPIDMALNAQTATGSSHIRNFIKAYKEFSFQEALIEGNEQAILHYDAIGVVGLITPWNWPMNQVTLKVIPALLAGCTMVLKPSEIAPLSAMLFAEILDEAALPSGVFNLINGDGANVGSYLSAHPDLEMISFTGSTRAGKDISKNASNTLKRVCLELGGKGANIIFADADIDALQRGVRHCFYNSGQSCNAPTRMLVEQAIYDKAIKTAKDIAEKTQVGPGHQTGNHIGPVVSKEQYDKIQDLIQSGIDEGATLVTGGTGLPMGMERGYYVRPTVFADVKPHMRIFREEIFGPVLSLLPFNTEDEAVTLANDTEYGLTNYIQSQDRSKCRRIAAQVRSGMVEVNGHELPGGSYFGGVKFSGRAREGGLWGIKEFLDTKAISYW	soluble
